This note sets out measurements from article PMC3350560.

The chains are these.
B1: probe A (oligo A) (dsDNA)
DNA 1: GATTTGCGTTTTAGAGGCTATAGGCTCTTGAAACTCTCCA
DNA 2: TGGAGAGTTTCAAGAGCCTATAGCCTCTAAAACGCAAATC
B2: probe C (oligo C) (dsDNA)
DNA 1: GGCAAACAGCAGGAATTCCTAAAAAATTCGAAAAGGTTTCT
DNA 2: AGAAACCTTTTCGAATTTTTTAGGAATTCCTGCTGTTTGCC
B3: probe D (oligo D) (dsDNA)
DNA 1: CAATGATTTGCGTTTTAG
DNA 2: CTAAAACGCAAATCATTG

Sequence of rCKAP4 (recombinant CKAP4 extracellular domain) (Q07065 126-501): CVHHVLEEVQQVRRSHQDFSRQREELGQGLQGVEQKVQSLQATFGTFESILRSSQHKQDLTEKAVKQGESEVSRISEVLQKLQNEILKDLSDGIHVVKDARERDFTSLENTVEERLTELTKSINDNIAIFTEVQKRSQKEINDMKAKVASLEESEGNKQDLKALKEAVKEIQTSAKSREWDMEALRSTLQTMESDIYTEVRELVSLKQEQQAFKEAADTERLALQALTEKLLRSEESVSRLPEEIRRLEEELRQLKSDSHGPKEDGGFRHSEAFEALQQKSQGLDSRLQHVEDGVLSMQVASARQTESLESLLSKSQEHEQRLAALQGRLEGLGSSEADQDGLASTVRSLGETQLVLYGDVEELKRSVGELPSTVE

The data set concerns the target rCKAP4 (recombinant CKAP4 extracellular domain) (UniProt Q07065 126-501). Briefly: EMSA. (In general: In EMSA bound probe runs differently from free probe, usually more slowly.)
For the molecule B1, the binding result is listed as “binds”.
As for B2, the binding result is on record as “no binding”.
To B3 belongs “no binding”.
